# Experimental data from patent US10131702B2, “Glucagon-GLP-1-GIP triple agonist compounds” (priority 2013, dated 2018).
# Where two headings read alike, the source gives them in different places. Numbered stars: 1 amine (or outer) side, 2 acyl side, 3 side chain; on linkers, the order of the positions; unused ones are H or OH. Square brackets hold non-standard residues; d marks the D form. Side chains are listed from the residue outwards. * marks the point of attachment. γGlu = O=C(O)[C@H](CCC(=O)[*:2])N[*:1]; Palmitoyl = CCCCCCCCCCCCCCCC(=O)*; Aib = CC(C)(N)C(=O)O
# T1: human GIP receptor (human, UniProt P48546 22-466)
# T1 sequence: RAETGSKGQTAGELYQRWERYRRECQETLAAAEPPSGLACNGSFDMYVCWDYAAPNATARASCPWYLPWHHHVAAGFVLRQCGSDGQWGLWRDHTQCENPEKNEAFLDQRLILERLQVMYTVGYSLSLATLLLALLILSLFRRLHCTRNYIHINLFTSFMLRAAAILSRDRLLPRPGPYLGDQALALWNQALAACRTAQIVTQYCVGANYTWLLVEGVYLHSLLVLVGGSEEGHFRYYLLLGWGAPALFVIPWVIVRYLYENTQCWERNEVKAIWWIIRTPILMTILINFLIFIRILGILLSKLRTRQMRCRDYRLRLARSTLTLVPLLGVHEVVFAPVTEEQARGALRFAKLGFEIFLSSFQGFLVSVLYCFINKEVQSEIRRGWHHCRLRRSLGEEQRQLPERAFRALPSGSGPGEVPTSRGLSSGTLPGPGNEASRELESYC
# How the values were obtained:
# Test in all cases: cell-based or functional assay
# [1] = molecular target: T2, human glucagon receptor (human, UniProt P47871 26-477)
# [2] = molecular target: T3, human glucagon-like peptide 1 receptor (human, UniProt P43220 24-463)
# [3] = molecular target: T1, human GIP receptor
# [4] = molecular target: T2, human glucagon receptor; remark: listed apart in the source
# [5] = molecular target: T3, human glucagon-like peptide 1 receptor; remark: listed apart in the source
# [6] = molecular target: T1, human GIP receptor; remark: listed apart in the source
# T2 sequence (P47871 26-477): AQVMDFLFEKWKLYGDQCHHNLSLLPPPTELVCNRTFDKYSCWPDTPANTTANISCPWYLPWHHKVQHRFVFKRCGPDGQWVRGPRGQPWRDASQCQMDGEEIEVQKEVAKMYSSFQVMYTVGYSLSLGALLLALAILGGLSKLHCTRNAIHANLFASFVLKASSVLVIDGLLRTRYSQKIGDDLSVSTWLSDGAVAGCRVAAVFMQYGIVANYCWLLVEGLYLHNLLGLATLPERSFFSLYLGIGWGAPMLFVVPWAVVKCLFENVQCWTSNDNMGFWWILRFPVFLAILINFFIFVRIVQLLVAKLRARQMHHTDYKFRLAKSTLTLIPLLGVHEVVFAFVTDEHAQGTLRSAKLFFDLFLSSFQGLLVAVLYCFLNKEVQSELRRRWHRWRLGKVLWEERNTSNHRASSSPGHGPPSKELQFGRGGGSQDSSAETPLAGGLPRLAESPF
binder,measurement,setting,value
YAQGTFTSDYSIYLDSKAAKDFVEWLLSA (HELM PEPTIDE1{Y.[Aib].Q.G.T.F.T.S.D.Y.S.I.Y.L.D.S.K.A.A.K.D.F.V.E.W.L.L.S.A.[am]}$$$$V2.0; SMILES CC[C@H](C)[C@H](NC(=O)[C@H](CO)NC(=O)[C@H](Cc1ccc(O)cc1)NC(=O)[C@H](CC(=O)O)NC(=O)[C@H](CO)NC(=O)[C@@H](NC(=O)[C@H](Cc1ccccc1)NC(=O)[C@@H](NC(=O)CNC(=O)[C@H](CCC(N)=O)NC(=O)C(C)(C)NC(=O)[C@@H](N)Cc1ccc(O)cc1)[C@@H](C)O)[C@@H](C)O)C(=O)N[C@@H](Cc1ccc(O)cc1)C(=O)N[C@@H](CC(C)C)C(=O)N[C@@H](CC(=O)O)C(=O)N[C@@H](CO)C(=O)N[C@@H](CCCCN)C(=O)N[C@@H](C)C(=O)N[C@@H](C)C(=O)N[C@@H](CCCCN)C(=O)N[C@@H](CC(=O)O)C(=O)N[C@@H](Cc1ccccc1)C(=O)N[C@H](C(=O)N[C@@H](CCC(=O)O)C(=O)N[C@@H](Cc1c[nH]c2ccccc12)C(=O)N[C@@H](CC(C)C)C(=O)N[C@@H](CC(C)C)C(=O)N[C@@H](CO)C(=O)N[C@@H](C)C(N)=O)C(C)C) [Compound 10],EC50 (cAMP induction),[1],0.1 nM
same,EC50 (cAMP induction),[2],0.1 nM
same,EC50 (cAMP induction),[3],0.012 nM
same,EC50 (cAMP induction),[4],0.1 nM
same,EC50 (cAMP induction),[5],0.012 nM
same,EC50 (cAMP induction),[6],0.24 nM
H-Y[Aib]QGTFTSDYSKYLDSK([γGlu-Palmitoyl])AAHDFVEWLLSA-NH2 [Compound 2],EC50 (cAMP induction),[1],0.046 nM
same,EC50 (cAMP induction),[2],0.046 nM
same,EC50 (cAMP induction),[3],0.089 nM
same,EC50 (cAMP induction),[4],0.046 nM
same,EC50 (cAMP induction),[5],0.089 nM
same,EC50 (cAMP induction),[6],0.35 nM
YAQGTFTSDYSIYLDEKAAHDFVEWLLSA (HELM PEPTIDE1{Y.[Aib].Q.G.T.F.T.S.D.Y.S.I.Y.L.D.E.K.A.A.H.D.F.V.E.W.L.L.S.A.[am]}$$$$V2.0; SMILES CC[C@H](C)[C@H](NC(=O)[C@H](CO)NC(=O)[C@H](Cc1ccc(O)cc1)NC(=O)[C@H](CC(=O)O)NC(=O)[C@H](CO)NC(=O)[C@@H](NC(=O)[C@H](Cc1ccccc1)NC(=O)[C@@H](NC(=O)CNC(=O)[C@H](CCC(N)=O)NC(=O)C(C)(C)NC(=O)[C@@H](N)Cc1ccc(O)cc1)[C@@H](C)O)[C@@H](C)O)C(=O)N[C@@H](Cc1ccc(O)cc1)C(=O)N[C@@H](CC(C)C)C(=O)N[C@@H](CC(=O)O)C(=O)N[C@@H](CCC(=O)O)C(=O)N[C@@H](CCCCN)C(=O)N[C@@H](C)C(=O)N[C@@H](C)C(=O)N[C@@H](Cc1c[nH]cn1)C(=O)N[C@@H](CC(=O)O)C(=O)N[C@@H](Cc1ccccc1)C(=O)N[C@H](C(=O)N[C@@H](CCC(=O)O)C(=O)N[C@@H](Cc1c[nH]c2ccccc12)C(=O)N[C@@H](CC(C)C)C(=O)N[C@@H](CC(C)C)C(=O)N[C@@H](CO)C(=O)N[C@@H](C)C(N)=O)C(C)C) [Compound 9],EC50 (cAMP induction),[1],0.097 nM
same,EC50 (cAMP induction),[2],0.097 nM
same,EC50 (cAMP induction),[3],0.006 nM
same,EC50 (cAMP induction),[4],0.097 nM
same,EC50 (cAMP induction),[5],0.0055 nM
same,EC50 (cAMP induction),[6],0.056 nM
YAQGTFTSDYSKYLESKAAHDFVEWLLSA (HELM PEPTIDE1{Y.[Aib].Q.G.T.F.T.S.D.Y.S.K.Y.L.E.S.K.A.A.H.D.F.V.E.W.L.L.S.A.[am]}$$$$V2.0; SMILES CC(C)C[C@H](NC(=O)[C@H](CC(C)C)NC(=O)[C@H](Cc1c[nH]c2ccccc12)NC(=O)[C@H](CCC(=O)O)NC(=O)[C@@H](NC(=O)[C@H](Cc1ccccc1)NC(=O)[C@H](CC(=O)O)NC(=O)[C@H](Cc1c[nH]cn1)NC(=O)[C@H](C)NC(=O)[C@H](C)NC(=O)[C@H](CCCCN)NC(=O)[C@H](CO)NC(=O)[C@H](CCC(=O)O)NC(=O)[C@H](CC(C)C)NC(=O)[C@H](Cc1ccc(O)cc1)NC(=O)[C@H](CCCCN)NC(=O)[C@H](CO)NC(=O)[C@H](Cc1ccc(O)cc1)NC(=O)[C@H](CC(=O)O)NC(=O)[C@H](CO)NC(=O)[C@@H](NC(=O)[C@H](Cc1ccccc1)NC(=O)[C@@H](NC(=O)CNC(=O)[C@H](CCC(N)=O)NC(=O)C(C)(C)NC(=O)[C@@H](N)Cc1ccc(O)cc1)[C@@H](C)O)[C@@H](C)O)C(C)C)C(=O)N[C@@H](CO)C(=O)N[C@@H](C)C(N)=O) [Compound 8],EC50 (cAMP induction),[1],0.042 nM
same,EC50 (cAMP induction),[2],0.042 nM
same,EC50 (cAMP induction),[3],0.015 nM
same,EC50 (cAMP induction),[4],0.042 nM
same,EC50 (cAMP induction),[5],0.015 nM
same,EC50 (cAMP induction),[6],0.2 nM
YAQGTFTSDYSIYLDSKAAHDFVEWLLSA (HELM PEPTIDE1{Y.[Aib].Q.G.T.F.T.S.D.Y.S.I.Y.L.D.S.K.A.A.H.D.F.V.E.W.L.L.S.A.[am]}$$$$V2.0; SMILES CC[C@H](C)[C@H](NC(=O)[C@H](CO)NC(=O)[C@H](Cc1ccc(O)cc1)NC(=O)[C@H](CC(=O)O)NC(=O)[C@H](CO)NC(=O)[C@@H](NC(=O)[C@H](Cc1ccccc1)NC(=O)[C@@H](NC(=O)CNC(=O)[C@H](CCC(N)=O)NC(=O)C(C)(C)NC(=O)[C@@H](N)Cc1ccc(O)cc1)[C@@H](C)O)[C@@H](C)O)C(=O)N[C@@H](Cc1ccc(O)cc1)C(=O)N[C@@H](CC(C)C)C(=O)N[C@@H](CC(=O)O)C(=O)N[C@@H](CO)C(=O)N[C@@H](CCCCN)C(=O)N[C@@H](C)C(=O)N[C@@H](C)C(=O)N[C@@H](Cc1c[nH]cn1)C(=O)N[C@@H](CC(=O)O)C(=O)N[C@@H](Cc1ccccc1)C(=O)N[C@H](C(=O)N[C@@H](CCC(=O)O)C(=O)N[C@@H](Cc1c[nH]c2ccccc12)C(=O)N[C@@H](CC(C)C)C(=O)N[C@@H](CC(C)C)C(=O)N[C@@H](CO)C(=O)N[C@@H](C)C(N)=O)C(C)C) [Compound 5],EC50 (cAMP induction),[1],0.065 nM
same,EC50 (cAMP induction),[2],0.065 nM
same,EC50 (cAMP induction),[3],0.009 nM
same,EC50 (cAMP induction),[4],0.065 nM
same,EC50 (cAMP induction),[5],0.0092 nM
same,EC50 (cAMP induction),[6],0.17 nM
YAQGTFTSDYSKALDSKAAHDFVEWLLSA (HELM PEPTIDE1{Y.[Aib].Q.G.T.F.T.S.D.Y.S.K.A.L.D.S.K.A.A.H.D.F.V.E.W.L.L.S.A.[am]}$$$$V2.0; SMILES CC(C)C[C@H](NC(=O)[C@H](C)NC(=O)[C@H](CCCCN)NC(=O)[C@H](CO)NC(=O)[C@H](Cc1ccc(O)cc1)NC(=O)[C@H](CC(=O)O)NC(=O)[C@H](CO)NC(=O)[C@@H](NC(=O)[C@H](Cc1ccccc1)NC(=O)[C@@H](NC(=O)CNC(=O)[C@H](CCC(N)=O)NC(=O)C(C)(C)NC(=O)[C@@H](N)Cc1ccc(O)cc1)[C@@H](C)O)[C@@H](C)O)C(=O)N[C@@H](CC(=O)O)C(=O)N[C@@H](CO)C(=O)N[C@@H](CCCCN)C(=O)N[C@@H](C)C(=O)N[C@@H](C)C(=O)N[C@@H](Cc1c[nH]cn1)C(=O)N[C@@H](CC(=O)O)C(=O)N[C@@H](Cc1ccccc1)C(=O)N[C@H](C(=O)N[C@@H](CCC(=O)O)C(=O)N[C@@H](Cc1c[nH]c2ccccc12)C(=O)N[C@@H](CC(C)C)C(=O)N[C@@H](CC(C)C)C(=O)N[C@@H](CO)C(=O)N[C@@H](C)C(N)=O)C(C)C) [Compound 7],EC50 (cAMP induction),[1],0.086 nM
same,EC50 (cAMP induction),[2],0.086 nM
same,EC50 (cAMP induction),[3],0.031 nM
same,EC50 (cAMP induction),[4],0.086 nM
same,EC50 (cAMP induction),[5],0.031 nM
same,EC50 (cAMP induction),[6],0.42 nM
YAQGTFTSDYSKYLDSKAARDFVEWLLSA (HELM PEPTIDE1{Y.[Aib].Q.G.T.F.T.S.D.Y.S.K.Y.L.D.S.K.A.A.R.D.F.V.E.W.L.L.S.A.[am]}$$$$V2.0; SMILES CC(C)C[C@H](NC(=O)[C@H](CC(C)C)NC(=O)[C@H](Cc1c[nH]c2ccccc12)NC(=O)[C@H](CCC(=O)O)NC(=O)[C@@H](NC(=O)[C@H](Cc1ccccc1)NC(=O)[C@H](CC(=O)O)NC(=O)[C@H](CCCNC(=N)N)NC(=O)[C@H](C)NC(=O)[C@H](C)NC(=O)[C@H](CCCCN)NC(=O)[C@H](CO)NC(=O)[C@H](CC(=O)O)NC(=O)[C@H](CC(C)C)NC(=O)[C@H](Cc1ccc(O)cc1)NC(=O)[C@H](CCCCN)NC(=O)[C@H](CO)NC(=O)[C@H](Cc1ccc(O)cc1)NC(=O)[C@H](CC(=O)O)NC(=O)[C@H](CO)NC(=O)[C@@H](NC(=O)[C@H](Cc1ccccc1)NC(=O)[C@@H](NC(=O)CNC(=O)[C@H](CCC(N)=O)NC(=O)C(C)(C)NC(=O)[C@@H](N)Cc1ccc(O)cc1)[C@@H](C)O)[C@@H](C)O)C(C)C)C(=O)N[C@@H](CO)C(=O)N[C@@H](C)C(N)=O) [Compound 6],EC50 (cAMP induction),[1],0.018 nM
same,EC50 (cAMP induction),[2],0.018 nM
same,EC50 (cAMP induction),[3],0.01 nM
same,EC50 (cAMP induction),[4],0.018 nM
same,EC50 (cAMP induction),[5],0.0095 nM
same,EC50 (cAMP induction),[6],0.34 nM
